The numbers were not newly measured in patent publication US11130803B2, “Isoform-selective TGFβ1 inhibitors and use thereof” (Scholar Rock, Inc., priority 2018, dated 2021), which cites them from elsewhere.

The data set has as its system mdx mice. The note with it: cited from earlier work.

B1: decorin: proteoglycan abundant in skeletal muscle that inhibits TGFβ activity (protein, UniProt P07585 31-359, looked up)
Decorin: DEASGIGPEVPDDRDFEPSLGPVCPFRCQCHLRVVQCSDLGLDKVPKDLPPDTTLLDLQNNKITEIKDGDFKNLKNLHALILVNNKISKVSPGAFTPLVKLERLYLSKNQLKELPEKMPKTLQELRAHENEITKVRKVTFNGLNQMIVIELGTNPLKSSGIENGAFQGMKKLSYIRIADTNITSIPQGLPPSLTELHLDGNKISRVDAASLKGLNNLAKLGLSFNSISAVDNGSLANTPHLRELHLDNNKLTRVPGGLAEHKYIQVVYLHNNNISVVGSSDFCPPGHNTKKASYSGVSLFSNPVQYWEIQPSTFRCVYVRSAIQLGNYK
As to B1, the muscle fibrosis entry is “decreases muscle fibrosis”.
